Measured values: PMC6818353, “Diversified Application of Barcoded PLATO (PLATO-BC) Platform for Identification of Protein Interactions” (Genomics, Proteomics & Bioinformatics, 2019)

Target: T1, N-terminal biotinylated ubiquitin (UniProt P0CG48 1-76, biotin on the N-terminus)
T1 construct: also called Bio-Ub; free ubiquitin peptide; source: bought: BostonBiochem (Catalog No. UB-570)
Experiment: pull-down; 5 μg His-tagged protein incubated with 1 μg biotinylated molecule (H4ac peptide or Ub) in 50 mM Tris pH 7.5, 150 mM NaCl, 0.1% NP-40, 2 h at 4 °C; captured on streptavidin-coated beads; immunoblot with anti-V5
Conditions: both partners purified

binding result: binds
B1: V5-His6-tagged RIOK3 protein, purified from E. coli (natural protein, human, UniProt O14730 1-519, looked up)
chain: MDLVGVASPEPGTAAAWGPSKCPWAIPQNTISCSLADVMSEQLAKELQLEEEAAVFPEVAVAEGPFITGENIDTSSDLMLAQMLQMEYDREYDAQLRREEKKFNGDSKVSISFENYRKVHPYEDSDSSEDEVDWQDTRDDPYRPAKPVPTPKKGFIGKGKDITTKHDEVVCGRKNTARMENFAPEFQVGDGIGMDLKLSNHVFNALKQHAYSEERRSARLHEKKEHSTAEKAVDPKTRLLMYKMVNSGMLETITGCISTGKESVVFHAYGGSMEDEKEDSKVIPTECAIKVFKTTLNEFKNRDKYIKDDFRFKDRFSKLNPRKIIRMWAEKEMHNLARMQRAGIPCPTVVLLKKHILVMSFIGHDQVPAPKLKEVKLNSEEMKEAYYQTLHLMRQLYHECTLVHADLSEYNMLWHAGKVWLIDVSQSVEPTHPHGLEFLFRDCRNVSQFFQKGGVKEALSERELFNAVSGLNITADNEADFLAEIEALEKMNEDHVQKNGRKAASFLKDDGDPPLLYDE
notes: also called V5-fused RIOK3; pET-DEST42-RIOK3; source: E. coli DE3 strain, purified
